Target: T1, SULU1-coiled-coil2 GST fusion (Construct 1; amino acids 752-898) (human, UniProt Q5R4F3 752-898 (Pongo abelii entry))
T1 construct: Immobilised bait in T7 phage display; also called SULU1 ccl; not shown: glutathione S-transferase (GST) of vector pGEX-4T; baits were made as C-terminal fusions to GST, expressed in E. coli
T1 sequence: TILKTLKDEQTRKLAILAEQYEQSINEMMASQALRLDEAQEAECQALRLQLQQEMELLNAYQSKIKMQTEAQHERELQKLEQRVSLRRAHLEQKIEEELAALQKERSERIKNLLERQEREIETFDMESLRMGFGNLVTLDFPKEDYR
Test: T7 phage display, H441 cDNA library, GST-fused bait; interactor listed

B1: GEK2 coiled-coil domain displayed on T7 phage (677-820 of SEQ #26) (other)
chain: KESMKQKMEEHTQKKQLLDRDFVAKQKEDLELAMKRLTTDNRREICDKERECLMKKQELLRDREAALWEMEEHQLQERHQLVKQQLKDQYFLQRHELLRKHEKEREQMQRYNQRMIEQLKVRQQQEKARLPKIQRSEGKTRMAM
notes: also called GEK2 cc dom; GEK2 CC1; not shown: T7 phage coat protein of vector T7Select1-1b to which the cDNA fragment is fused
Does B1 bind?
Result: binds
